These results are taken from patent US20030186322A1 (Scripps Research, published 2003).

The chains are these.
B1: 92H2 phage Fv (VH-(Gly4Ser)-pVII / VL-(Gly4Ser)-pIX heterodimer displayed on phage) (other)
VH: MAEVQLQQSGPELKKPGETVKISCKTSGYSFTNYGMNWVKQAPGKGLKWMGWINTYTGEPTYADDFRGRFAFSLATSASTAYLQIINLKNEDTATYFCETYDSPLGDYWGQGTTVTVSSSSGGGGSGMEQVADFDTIYQAMIQISVVLCFALGIIAGGQR
VL: DIGLTQSPASLAVSLGQRATISCRASKSVSTSGYNYMHWYQQKPGQPPKLLIYLASNLASGVPARFSGSGSGTDFTLNIHPVEEEDAATYYCLYSREFPPWTFGGGTKLEIKRSGGGGSMSVLVYSFASFVLGWCLRSGITYFTRLMETSS
notes: also called 92H2 phage antibody; 92H2-VHVL
B2: 21H3 phage Fv (VH-(Gly4Ser)-pVII / VL-(Gly4Ser)-pIX heterodimer displayed on phage) (other)
VH: MAEVQLLEVQLQQSGPVLVKPGGSVKMSCKASEYTLTSYLFQWVKQKSGQGLEWIGYIYPYNGGTRYNEKFRGKATLTSDKSSNTAYLELSSLTSEDSAVYYCARSSMSDPGANWGPGTLVTVSGGGGSGMEQVADFDTIYQAMIQISVVLCFALGIIAGGQR
VL: DIQMTQSPSSLSASLGERVSLTCRASQEISGYLYWLQQKPDGTIKRLIYAASTLDSGVPKRFSGSRSGSDYSLTISSLESEDFADYYCLQYASYPRTFGGGTKVEIKRADSGGGGSMSVLVYSFASFVLGWCLRSGITYFTRLMETSS
notes: also called 21H3 phage antibody; 21H3-VHVL
B3: 2H6 phage Fv (VH-(Gly4Ser)-pVII / VL-(Gly4Ser)-pIX heterodimer displayed on phage) (other)
VH: MAEVQLLEEVNLVESGGGLVKPGGSLKLSCAASGFTFSSYAMSWVRQTPEKRLEWVASINNGGKIYYPDSVKGRFTISRDNARNILYLQMSSLRSEDTAMYYCVKRDSSVYDYAMDNWGQGTSVTVSSGGGGSGMEQVADFDTIYQAMIQISVVLCFALGIIAGGQR
VL: VLTQSPAIMYASPGEKVTITCSASSSVSYMHWFQQKPGTSPKLWIYSTSKLASGVPARFSGSGSGTSYSLTISRMEAEDVATYYCQQRSSYTVTFGAGTKLELKRTSGGGGSMSVLVYSFASFVLGWCLRSGITYFTRLMETSS
notes: also called 2H6 phage antibody; 2H6-VHVL

The target in this experiment is T1, BSA (bovine serum albumin) (bovine, UniProt P02769 25-607).
T1 construct: Carrier protein without hapten; also called BSA-gold complex
T1 sequence (P02769 25-607 limits assumed): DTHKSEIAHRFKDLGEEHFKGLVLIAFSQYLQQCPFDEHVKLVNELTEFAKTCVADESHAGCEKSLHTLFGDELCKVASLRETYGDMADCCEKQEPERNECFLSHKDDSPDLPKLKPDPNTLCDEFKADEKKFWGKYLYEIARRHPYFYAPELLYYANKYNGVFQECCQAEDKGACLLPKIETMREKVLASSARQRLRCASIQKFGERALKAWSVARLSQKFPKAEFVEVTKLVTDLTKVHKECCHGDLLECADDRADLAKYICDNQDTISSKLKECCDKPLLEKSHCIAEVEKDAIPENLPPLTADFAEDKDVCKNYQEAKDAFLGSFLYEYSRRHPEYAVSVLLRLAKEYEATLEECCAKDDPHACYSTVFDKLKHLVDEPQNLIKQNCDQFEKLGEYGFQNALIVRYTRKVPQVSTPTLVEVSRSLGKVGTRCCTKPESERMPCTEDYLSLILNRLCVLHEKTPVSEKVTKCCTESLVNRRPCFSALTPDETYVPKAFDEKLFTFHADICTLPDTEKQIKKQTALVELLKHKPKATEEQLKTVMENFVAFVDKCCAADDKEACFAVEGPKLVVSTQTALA
As to the kind of experiment: phage ELISA. The procedure: The supernatant of the phage culture described above was directly used for ELISA. Microtiter wells (Corning) were coated with 25 μl of 10 μg/ml mouse anti-Flag antibody to assay Flag constructs with pVII/pIX, with PCP-BSA for 21H3 and 2H6 constructs, and with the cocaine conjugate GNC—BSA to assay the 92H2 construct. The coated plates were then incubated at room temperature overnight and blocked with 50 μl of Blotto (4% skim milk powder in PBS). Typically, 25 μl of phage supernatant was added and the plate was incubated at 37 C. for 1 hr. After washing, 25 μl of 1/1000 dilution of horseradish peroxidase/anti-M13 conjugate (Pharmacia) in Blotto was added and incubated at 37 C. for 30 minutes. The plate was extensively washed three times with PBS/0.1% tween-20 and pipetted vigorously up and down to remove nonspecific binding phage. The plate was then developed with TMB (3,3′,5,5′-tetramethylbenzidine) substrate (Pierce) and quenched with an equal volume of 2 M H₂SO₄. The absorbance of each reaction was then read on an ELISA Plate reader at 450 nM.
Regarding B1, the binding result is “no binding”.
For B2 the value was “no binding”; for B3, “no binding”.
